According to US20260167721A1 (ABLEXIS, published 2026):

B1: CD3 × CD33-BspAb61 (bispecific antibody)
chain 1: NFMLTQPHSVSESPGKTVTISCTRSSGSIASNYVQWYQQRPGSSPTTVIYEDNQRPSGVPDRFSGSIDSSSNSASLTISGLKTEDEADYYCQSFDNSNRVFGCGTKLTVLGGGGSGGGGSGGGGSGGGGSEVQLVESGGGLVKPGGSLRLSCAASGFTFSRYSMNWVRQAPGKCLKWVSSISSSGSYKYYADSVKGRFTISRDNAKNSLYLQMNSLRAEDTAVYYCAREPPTLGMDYWGQGTLVTVSSDKTHTCPPCPAPEFEGGPSVFLFPPKPKDTLMISRTPEVTCVVVDVSHEDPEVKFNWYVDGVEVHNAKTKPREEQYNSTYRVVSVLTVLHQDWLNGKEYKCKVSNKALPASIEKTISKAKGQPREPQVYTLPPCREEMTKNQVSLWCLVKGFYPSDIAVEWESNGQPENNYKTTPPVLDSDGSFFLYSKLTVDKSRWQQGNVFSCSVMHEALHNHYTQKSLSLSPGK
chain 2: EVQLVQSGAEVKKPGSSVKVSCKASGYTITDSNIHWVRQAPGQSLEWIGYIYPYNGGTDYNQKFKNRATLTVDNPTNTAYMELSSLRSEDTAFYYCVNGNPWLAYWGQGTLVTVSSASTKGPSVFPLAPSSKSTSGGTAALGCLVKDYFPEPVTVSWNSGALTSGVHTFPAVLQSSGLYSLSSVVTVPSSSLGTQTYICNVNHKPSNTKVDKRVEPKSCDKTHTCPPCPAPEFEGGPSVFLFPPKPKDTLMISRTPEVTCVVVDVSHEDPEVKFNWYVDGVEVHNAKTKPREEQYNSTYRVVSVLTVLHQDWLNGKEYKCKVSNKALPASIEKTISKAKGQPREPQVCTLPPSREEMTKNQVSLSCAVKGFYPSDIAVEWESNGQPENNYKTTPPVLDSDGSFFLVSKLTVDKSRWQQGNVFSCSVMHEALHNRFTQKSLSLSPGK
chain 3: DIQLTQSPSTLSASVGDRVTITCRASESLDNYGIRFLTWFQQKPGKAPKLLMYAASNQGSGVPSRFSGSGSGTEFTLTISSLQPDDFATYYCQQTKEVPWSFGQGTKVEVKRTVAAPSVFIFPPSDEQLKSGTASVVCLLNNFYPREAKVQWKVDNALQSGNSQESVTEQDSKDSTYSLSSTLTLSKADYEKHKVYACEVTHQGLSSPVTKSFNRGEC
B2: CD3 × CD33-BspAb50 (bispecific antibody)
chain 1: not shown
chain 2: B1 chain 2
chain 3: B1 chain 3
B3: CD3 × CD33-BspAb51 (bispecific antibody)
chain 1: not shown
chain 2: B1 chain 2
chain 3: B1 chain 3
B4: CD3 × CD33-BspAb62 (bispecific antibody)
chain 1: NFMLTQPHSVSESPGKTVTISCTRSSGSIASNYVQWYQQRPGSSPTTVIYEDNQRPSGVPDRFSGSIDSSSNSASLTISGLKTEDEADYYCQSYDSSNHVFGCGTKLTVLGGGGSGGGGSGGGGSGGGGSEVQLVESGGGLVQPGGSLRLSCAASGFTFSRYSMNWVRQAPGKCLEWVSYISSSSSSIYYADSVKGRFTISRDNAKNSLYLQMNSLRDEDTAVYYCARDRRATLDYWGQGTLVTVSSDKTHTCPPCPAPEFEGGPSVFLFPPKPKDTLMISRTPEVTCVVVDVSHEDPEVKFNWYVDGVEVHNAKTKPREEQYNSTYRVVSVLTVLHQDWLNGKEYKCKVSNKALPASIEKTISKAKGQPREPQVYTLPPCREEMTKNQVSLWCLVKGFYPSDIAVEWESNGQPENNYKTTPPVLDSDGSFFLYSKLTVDKSRWQQGNVFSCSVMHEALHNHYTQKSLSLSPGK
chain 2: B1 chain 2
chain 3: B1 chain 3
B5: CD3 × CD33-BspAb52 (bispecific antibody)
chain 1: not shown
chain 2: B1 chain 2
chain 3: B1 chain 3
B6: CD3 × CD33-BspAb65 (bispecific antibody)
chain 1: NFMLTQPHSVSESPGKTVTIACTRSSGSIASNYVQWYQQRPGSSPTTVIYEDNQRPSGVPDRFSGSIDSSSNSASLTISGLKTEDEADYYCQSYDSSNQVFGCGTKLTVLGGGGSGGGGSGGGGSGGGGSQVTLKESGPGILQPSQTLSLTCSFSGFSLSTFGMGVGWIRQPSGKCLEWLAHIWWDDDKYYNPALKSRLTISKDTSKNQVFLKIANVDTADTATYYCARLGYYPYWFFDVWGTGTTVTVSSDKTHTCPPCPAPEFEGGPSVFLFPPKPKDTLMISRTPEVTCVVVDVSHEDPEVKFNWYVDGVEVHNAKTKPREEQYNSTYRVVSVLTVLHQDWLNGKEYKCKVSNKALPASIEKTISKAKGQPREPQVYTLPPCREEMTKNQVSLWCLVKGFYPSDIAVEWESNGQPENNYKTTPPVLDSDGSFFLYSKLTVDKSRWQQGNVFSCSVMHEALHNHYTQKSLSLSPGK
chain 2: B1 chain 2
chain 3: B1 chain 3
B7: CD3 × CD33-BspAb37 (bispecific antibody)
chain 1: not shown
chain 2: B1 chain 2
chain 3: B1 chain 3
B8: CD3 × CD33-BspAb72 (bispecific antibody)
chain 1: EVQLVESGGGLVQPGGSLRLSCAASGFTFSSYSMNWVRQAPGKCLEWVSYISSSSSTIYYADSVKGRFTISRDNAKNSLYLQMNSLRDEDTAVYYCARDGPVDYGMDVWGQGTTVTVSSGGGGSGGGGSGGGGSGGGGSSYELTQPPSVSVSPGQTARITCSGDALPKQYTYWYQQKPGQAPVLVIYKDSERPSGIPERFSGSSSGTTVTLTISGVQAEDEADYYCQSADSSGTYRVFGCGTKLTVLDKTHTCPPCPAPEFEGGPSVFLFPPKPKDTLMISRTPEVTCVVVDVSHEDPEVKFNWYVDGVEVHNAKTKPREEQYNSTYRVVSVLTVLHQDWLNGKEYKCKVSNKALPASIEKTISKAKGQPREPQVYTLPPCREEMTKNQVSLWCLVKGFYPSDIAVEWESNGQPENNYKTTPPVLDSDGSFFLYSKLTVDKSRWQQGNVFSCSVMHEALHNHYTQKSLSLSPGK
chain 2: B1 chain 2
chain 3: B1 chain 3
B9: CD3 × CD33-BspAb73 (bispecific antibody)
scFv-Fc: EVQLVESGGGLVKPGGSLRLSCAASGFTFSSYSMNWVRQAPGKCLEWVSSVNSRGSYIYYADSVKGRFTISRDNAKDSLYLQMNSLRADDTAVYYCARDRRELLLDYWGQGTLVTVSSGGGGSGGGGSGGGGSGGGGSSYELTQPPSVSVSPGQTARITCSGDALPKKYAYWYQQKSGQAPVLVIYEDSKRPSGIPERFSGSSSGTMATLTISGAQVEDEADYYCYSTDSSGNHSWVFGCGTKLTVLGGGGSDKTHTCPPCPAPEFEGGPSVFLFPPKPKDTLMISRTPEVTCVVVDVSHEDPEVKFNWYVDGVEVHNAKTKPREEQYNSTYRVVSVLTVLHQDWLNGKEYKCKVSNKALPASIEKTISKAKGQPREPQVYTLPPCREEMTKNQVSLWCLVKGFYPSDIAVEWESNGQPENNYKTTPPVLDSDGSFFLYSKLTVDKSRWQQGNVFSCSVMHEALHNHYTQKSLSLSPGK
heavy: B1 chain 2
light: B1 chain 3
notes: KiH heterodimer
B10: CD3 × CD33-BspAb75 (bispecific antibody)
scFv-Fc: EVQLVESGGGLVKPGGSLRLSCAASGFTFSSYSMNWVRQAPGKCLEWVSSISRRSGYIYYADSVKGRFTLSRDNAKKSLYLQMNSLRAEDTAVYYCARDLNWAFDYWGQGTLVTVSSGGGGSGGGGSGGGGSGGGGSNFMLTQPHSVSESPGKTVTISCTRSSGSIASNYVQWYQQRPGSSPTTVIYEDNHRPSGVPDRFSGSIDSSSNSASLTIAGLKTEDEADYYCQSYDSSNVVFGCGTKLTVLGGGGSDKTHTCPPCPAPEFEGGPSVFLFPPKPKDTLMISRTPEVTCVVVDVSHEDPEVKFNWYVDGVEVHNAKTKPREEQYNSTYRVVSVLTVLHQDWLNGKEYKCKVSNKALPASIEKTISKAKGQPREPQVYTLPPCREEMTKNQVSLWCLVKGFYPSDIAVEWESNGQPENNYKTTPPVLDSDGSFFLYSKLTVDKSRWQQGNVFSCSVMHEALHNHYTQKSLSLSPGK
heavy: B1 chain 2
light: B1 chain 3
notes: KiH heterodimer

Biological target: recombinant CD3 proteins
Assay: Octet (BLI), bispecific antibody against recombinant CD3 proteins

| Kd | Response | koff | kon | Binder |
| --- | --- | --- | --- | --- |
| 7.62 nM | 0.74 | 0.00187 s⁻¹ | 245000 M⁻¹ s⁻¹ | B1 |
| 125 nM | 0.33 | 0.00262 s⁻¹ | 21000 M⁻¹ s⁻¹ | B2 |
| 74 nM | 0.26 | 0.00232 s⁻¹ | 31400 M⁻¹ s⁻¹ | B3 |
| 85.9 nM | 0.25 | 0.0474 s⁻¹ | 552000 M⁻¹ s⁻¹ | B4 |
| 19.5 nM | 0.07 | 0.00751 s⁻¹ | 386000 M⁻¹ s⁻¹ | B5 |
| 11.7 nM | 0.09 | 0.00134 s⁻¹ | 114000 M⁻¹ s⁻¹ | B6 |
| 213 nM | 0.34 | 0.00336 s⁻¹ | 15800 M⁻¹ s⁻¹ | B7 |

Biological target: T1, human CD3 (TCR/CD3 complex on the cell surface) (human, UniProt P07766 23-207; P04234 22-171; P09693 23-182)
T1 construct: whole, on cells; Native CD3 on human Pan-T cells or Jurkat wild-type cells; also called CD3 on Pan-T cells; CD3 on Jurkat WT cells
Assay: flow cytometry, Jurkat WT cells, 10 ug/mL

T1 sequence (P07766 23-207, chain 1 of 3): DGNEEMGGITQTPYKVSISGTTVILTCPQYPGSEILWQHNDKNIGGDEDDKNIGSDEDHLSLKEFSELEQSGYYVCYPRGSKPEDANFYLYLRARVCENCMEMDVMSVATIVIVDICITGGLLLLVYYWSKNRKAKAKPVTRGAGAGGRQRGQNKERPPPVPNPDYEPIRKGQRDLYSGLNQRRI
T1 sequence (P04234 22-171, chain 2 of 3): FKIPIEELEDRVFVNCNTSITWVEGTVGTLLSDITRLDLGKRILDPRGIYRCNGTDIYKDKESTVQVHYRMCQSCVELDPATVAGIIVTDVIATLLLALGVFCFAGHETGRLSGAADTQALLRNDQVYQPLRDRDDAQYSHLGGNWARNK
T1 sequence (P09693 23-182, chain 3 of 3): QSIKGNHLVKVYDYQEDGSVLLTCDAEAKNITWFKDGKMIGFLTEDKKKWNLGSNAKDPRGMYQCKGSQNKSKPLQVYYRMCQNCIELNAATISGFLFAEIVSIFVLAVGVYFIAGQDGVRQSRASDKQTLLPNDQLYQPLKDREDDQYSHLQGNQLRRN

| gMFI | Binder |
| --- | --- |
| 3760 gMFI | B8 |
| 6110 gMFI | B9 |
| 15900 gMFI | B10 |

Biological target: T1, human CD3 (TCR/CD3 complex on the cell …)
Assay: flow cytometry, Jurkat WT gMFI over Jurkat KO gMFI, 10 ug/mL

| Jurkat WT/KO (Fold) | Binder |
| --- | --- |
| 2 fold | B8 |
| 3 fold | B9 |
| 7.2 fold | B10 |

Biological target: T1, human CD3 (TCR/CD3 complex on the cell …)
Assay: flow cytometry, Jurkat WT cells, 1 ug/mL

| gMFI | Binder |
| --- | --- |
| 1950 gMFI | B8 |
| 2510 gMFI | B9 |
| 11300 gMFI | B10 |

Biological target: T1, human CD3 (TCR/CD3 complex on the cell …)
Assay: flow cytometry, Pan-T cells, 10 ug/mL

| % Positive | gMFI | Binder |
| --- | --- | --- |
| 66.1% | 8340 gMFI | B8 |
| 95.9% | 22000 gMFI | B9 |
| 99.7% | 149000 gMFI | B10 |

Biological target: T1, human CD3 (TCR/CD3 complex on the cell …)
Assay: flow cytometry, Jurkat WT gMFI over Jurkat KO gMFI, 1 ug/mL

| Jurkat WT/KO (Fold) | Binder |
| --- | --- |
| 1 fold | B8 |
| 1.2 fold | B9 |
| 5.3 fold | B10 |

Biological target: T1, human CD3 (TCR/CD3 complex on the cell …)
Assay: flow cytometry, Pan-T cells, 1 ug/mL

| % Positive | gMFI | Binder |
| --- | --- | --- |
| 2% | 2430 gMFI | B8 |
| 17.3% | 4180 gMFI | B9 |
| 99.2% | 69800 gMFI | B10 |
